Reference: the supplement of paper PMC9170038

Legend:
[1] = tested on: MS2 coat protein; assay: apparent KD of MS2 coat protein, switch ON state; designed switch direction (-1 OFF switch, 1 ON switch): -1; higher = weaker reporter binding; conditions: FMN input: 0 or 200 uM; Eterna round: R93 (includes R88 designs)
Procedure, shortened: (§1)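 For every design, apparent KD is the median of normalised binding-curve fits from its clusters. The RNA switches were transcribed on-chip from Illumina sequencing clusters and titrated with SNAP-549-labelled MS2 coat protein (twofold steps, 0.7 or 1.5 nM to 3 µM; 0.8–1.5 h to 10–20 min per step). Titrations used 100 mM Tris-HCl pH 7.5, 80 mM KCl, 4 mM MgCl2, without or with constant ligand.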

[2] = tested on: MS2 coat protein; assay: apparent KD of MS2 coat protein, switch OFF state (with FMN for OFF switches, without FMN for ON switches); designed switch direction (-1 OFF switch, 1 ON switch): -1; higher = weaker reporter binding; conditions: FMN input: 0 or 200 uM; Eterna round: R93 (includes R88 designs)
Procedure, shortened: as §1

Sequence | apparent KD of MS2 coat protein [1] | apparent KD of MS2 coat protein [2]
AAGAAGCUAGGAUAUACAUGAGGAUCACCCAUGUAAAAGAAAGAAAGGGAAAAGAAAAGUAGAAGGAGCAAGAA [Netjerikheperre-setpenamun Siamun-meryamun] | 12.2 nM | 18.1 nM
AAGAAGCUAGGAUAUACUAACGAAACUAAUGCAUAGAUAAAACAUGAGGAUCACCCAUGUAGAAGGAGCAGAAU [JR_Exc002_Sub014] | 21.6 nM | 20.6 nM
AAGAAGCUAGGAUAUACUUGGGCAACAAAUAAACUAAUAUAACAUGAGGAUCACCCAUGUAGAAGGAGCAGAAA [JR_Exc002_Sub205] | 39.7 nM | 39.8 nM
AAGAAGGCAGGAUAUACAUGAGGAUCACCCAUGUAAAAGAAAGAGGGAAAAGAGAAAAGUAGAAGGGCCAAGAA [Setepenre-meryamun Alexander III] | 27.8 nM | 75 nM
AAGAAGGGAGGAUAUACAAAAUAAAAGAAAAGAAAGAAAGAACAUGAGGAUCACCCAUGUAGAAGGCCUAAGAA [Merneferre Ay I] | 23.8 nM | 8.74 nM
AAGAAGGUAGGAUAUACAUGAGGAUCACCCAUGUAAAAGAAAGAAAGGGAAAAGAAAAGUAGAAGGACCAAGAA [Usermaatre Amenemope] | 23.5 nM | 27.4 nM
AAGAAGGUAGGAUAUACUAAAGAAAUAAAAAGAAAGAAAGAACAUGAGGAUCACCCAUGUAGAAGGGCCAAGAA [Merkare] | 51 nM | 35.2 nM
AAGAAGUAAGGAUAUCGAAGACUGUCGAAAAGACAGUCGAACGAGAAGGUACAUGAGGAUCACCCAUGUGAGAA [Opal 24] | 25.5 nM | 41 nM
AAGAAGUAAGGAUAUGCUGCUCGUCACAAAAGUGAUGAGUAGCAGAAGGUACAUGAGGAUCACCCAUGUAAAUA [Opal 32] | 25.3 nM | 17.2 nM
AAGAAGUCAGGAUAUACAAAAUAAAAGAAAAGAAAGAAAGAACAUGAGGAUCACCCAUGUAGAAGGGACAAGAA [Nerikare] | 57.8 nM | 37.4 nM
AAGAAGUCAGGAUAUACAUGAGGAUCACCCAUGUAAAAGAAAGAAAAGGGAAAGAAAAGUAGAAGGGACAAGAA [Menkheperre Thutmose III] | 22.5 nM | 208 nM
AAGAAGUCAGGAUAUCGAAGACAGACGAAAAGUCUGUCAAACGAGAAGGGACAUGAGGAUCACCCAUGUAAGAA [What have we learned so far? 64% 1] | 44.9 nM | 60.4 nM
AAGAAGUCAGGAUAUGCCAAAGAUCACGAAAGUGACAAAGGGCAGAAGGGACAUGAGGAUCACCCAUGUAAAGA [Opal 3] | 54.7 nM | 62.4 nM
AAGAAGUCAGGAUAUGCCAAAGAUCACGAAAGUGACUAAGGGCAGAAGGGACAUGAGGAUCACCCAUGUAAAGA [Opal 4] | 42.9 nM | 52.8 nM
AAGAAGUCAGGAUAUGCCAGAGAUCAAGAAAGUGACGAAUAGCAGAAGGGACAUGAGGAUCACCCAUGUAAAGA [Opal 9] | 43.5 nM | 35.9 nM
AAGAAGUCAGGAUAUGCUAAAGAAAUAAAAAUAAAUAAAGAACAUGAGGAUCACCCAUGUAGAAGGGACAAGAA [Sewadjkare Hori] | 72.1 nM | 33.3 nM
AAGAAGUCAGGAUAUGCUGCUCGUCACAAAAGUGAUGAGUAGCAGAAGGGACAUGAGGAUCACCCAUGUAAACA [Opal 34] | 37.6 nM | 47.2 nM
AAGAAGUCAGGAUAUGGUGCUCGUCACUUGCGUGAUGAGUACCAGAAGGGACAUGAGGAUCACCCAUGUAAAGA [Opal 21] | 47.1 nM | 60 nM
AAGAAGUGAGGAUAUACAUGAGGAUCACCCAUGUAAAAGAAAGAAGGGAAAGAGAAAAGUAGAAGGCACAAGAA [Usermaatre-setepenamun Osorkon III] | 28.5 nM | 31.3 nM
AAGAAGUGAGGAUAUCGAAAAGAAAAGAAAAGAAAAGAAAACGAGAAGGCACAUGAGGAUCACCCAUGUAAGAA [Setutre Darius I the Great] | 28.1 nM | 41 nM
AAGAAGUGAGGAUAUCGAAGACAAAAAAAAAAAAAGUCGAACGAGAAGGCACAUGAGGAUCACCCAUGUAAGAA [shorter stack] | 37.7 nM | 40.3 nM
AAGAAGUGAGGAUAUCGAAGACAGACGAAAAGUCUGUCAAACGAGAAGGCACAUGAGGAUCACCCAUGUGGAAG [Mat - Exaclusion 4 - Eli mod - D79] | 30.6 nM | 36.8 nM
AAGAAGUGAGGAUAUCGAAGACUGUCGAAAAGACAGUCGAACGAGAAGGCACAUGAGGAUCACCCAUGUGAGGA [Marsurpial 65% 2] | 26.2 nM | 50.1 nM

Sequence | apparent KD of MS2 coat protein [1] | apparent KD of MS2 coat protein [2]
AAGAAGUGAGGAUAUGCUGCUCGUCACUUGCGUGAUGAGUAGCAGAAGGCACAUGAGGAUCACCCAUGUGGGAA [Modifying Chris (69%) Late G segment, early G segment 3] | 89.1 nM | 110 nM
AAGAAGUGAGGAUAUGCUUGUCGUCACAAAAGUGAUGACGAGCAGAAGGCACAUGAGGAUCACCCAUGUAAAGA [Opal 27] | 37.1 nM | 49.9 nM
AAGAAUGCAGGAUAUACAAAAUAAAAGAAAAGAAAGAAAGAACAUGAGGAUCACCCAUGUAGAAGGGCAAAGAA [Menwadjre Sihathor] | 30 nM | 28.2 nM
AAGAAUGCAGGAUAUACAUGAGGAUCACCCAUGUAAAAGAAAGAGGGAAAAGAGAAAAGUAGAAGGGCAAAGAA [Cleopatra III] | 26.1 nM | 37.6 nM
AAGAAUGGAGGAUAUACAUGAGGAUCACCCAUGUAAAAGAAAGAAAAGGGAAAGAAAAGUAGAAGGCCAAAGAA [Sekhaenre/Akhenre Merenptah Siptah] | 28.5 nM | 41 nM
AAGACGUAAGGAUAUAUUAUGGGACAAUGAAGGAAGAUAAAACAUGAGGAUCACCCAUGUAGAAGGUGCAAAGA [JR_Exclusion2_Sub3] | 40.3 nM | 32.8 nM
AAGACUACAGGAUAUACAUGAGGAUCACCCAUGUAACUGACGGAUAGAUGACGGAGAAGUAGAAGGGUAGUCCA [Ruby 39] | 36.9 nM | 46.9 nM
AAGAGACAUGAGGAUCACCCAUGUGAGGAUAUGACGUAAAUAAAGAAAGAAGAAAUCGUCAGAAGGCACACCAA [55%, Disencluded 2, 4] | 48.4 nM | 75.8 nM
AAGAGGCUAGGAUAUACAUAUCUGAUGACUCAUCCUAAAACACAUGAGGAUCACCCAUGUAGAAGGAGCGAAUG [Anledi] | 19.2 nM | 16.5 nM
AAGAUGUCAGGAUAUGCUUGUCGUCACAAAAGUGAUGACGAGCAGAAGGGACAUGAGGAUCACCCAUGUAAAGA [JL eternac mod 3] | 148 nM | 303 nM
AAGCCACAUGAGGAUCACCCAUGUAAGGAUAUGAACGAAAUAAAAUAAAAAUAAAAGUUCAGAAGGUACAAAAA [Mat - Exclusion 1 - Eli mod - D23] | 20.2 nM | 21.9 nM
AAGGGACAUGAGGAUCACCCAUGUCAGGAUAUGCAAAUAACAAACAACAAACAACAAAGCAGAAGGGACAAAAA [Mat - Exclusion 1 - Eli mod - D53] | 27.9 nM | 24.8 nM
AAGGGACAUGAGGAUCACCCAUGUGAGGAUAUGCUAUGGAAAAUAAAAAAUAAACAUAGCAGAAGGCAUAAAAA [Mat - Exclusion 1 - Eli mod - D37] | 64.8 nM | 72.3 nM
AAGGGACAUGAGGAUCACCCAUGUGAGGAUAUGCUAUGGAAAAUAAAAAUAAAACAUAGCAGAAGGCAUAAAAA [Denovo 9] | 60.1 nM | 44.8 nM
AAGGGACAUGAGGAUCACCCAUGUUAGGAUAUCGGAAAAGGAAAAAAAAAAAAGAAGACGAGAAGGGACACCAA | 59.5 nM | 48.8 nM
AAGGUACGAGGAUAUACAUAGAUACAGACACAUGUGGAUGUACAUGAGGAUCACCCAUGUAGAAGGCGUAUAUA [AJ 21] | 64 nM | 101 nM
AAGGUACGAGGAUAUACAUAGAUACAGACACAUGUUCAUGUACAUGAGGAUCACCCAUGUAGAAGGCGUAUAUA [AJ 17] | 56.7 nM | 147 nM
AAGUAGGUAGGAUAUACAUAGAUACAGAUUCAUGUGGAACUACAUGAGGAUCACCCAUGUAGAAGGACCUAAUA [AJ 40] | 30.2 nM | 126 nM
AAGUUAUUAGGAUAUACUUGUGCGAUUAAUACGUUGAUAGUACAUGAGGAUCACCCAUGUAGAAGGAAUAAAAA [JR_Exc002_Sub411] | 38.4 nM | 25.9 nM
AAUAAACAUGAGGAUCACCCAUGUCAGGAUAUGCAUCUAACCUAAUAACAUAAAUACAGCAGAAGGGACUAAUA [JR_Exc001_Sub602] | 26.8 nM | 25 nM
AAUAAACAUGAGGAUCACCCAUGUGAGGAUAUACAAAUAAAUAAAAAUAAAAUAAAAAGUAGAAGGCACAAUAA [JR_Exc001_Sub001] | 23.5 nM | 27.8 nM
AAUAAACAUGAGGAUCACCCAUGUGAGGAUAUGGUAUAAUAAGGACAGUAAUGAUAAACCAGAAGGCACAAAUA [JR_Exc001_Sub1102] | 30.5 nM | 34.7 nM
